Our source for the fold of protein bound against the W295A peptide values is publication doi:10.1101/2025.10.13.682252.

In this experiment the target is Biotinylated peptide BubR1 WT (Q293 to R302) (human). The experiment can be described thus: pull-down.

Substance “GST-tagged BubR1 TPR (wild type) (from UniProt O60566 1-230) (domain or fragment)” yielded a fold of protein bound against the W295A peptide of 5 fold.
